assay: soluble on expression in E. coli; label from the status in PepcDB or PDB records

Sequence | soluble on expression in E. coli
MSFTTKVKEELIHLSTGDNNELAAIIKLSGSLGLAHQSLHLSITTENAKIARYIYSLIEDAYVIVPEIRYHQKTNLRKNRVYTVYVEQGVETILADLKLADSFFGLETGIEPQVLSDDNAGRSYLKGAFLAAGSIRDPESGKYQLEIYSVYLDHAQDLAQLMQKFMLDAKTIEHKSGAVTYLQKAEDIMDFLIIIGAMSCKEDFEAIKLLREARNDINRANNAETANIAKTISASMKTINNIIKIMDTIGLESLPIELQQVAQLRVKHPDYSIQQVADALEFPITKSGVNHRLRKINKIADDL | not soluble
MSGARLHTLLPELTTRQPVMVVGAAVIDVIADAYALPWRGCDIELKQQSVNVGGCALNIAVALKRLGIEAGNALPLGQGVWAEIIRNRMAKEGLISLIDNAESDNGWCLALVEPDGERTFMSFSGVENQWNRQWLARLTVAPGNLLYFSGYQLASPCGELLVEWLEKLQDVTPFIDFCPRIGDIPDALLARIMACRPLVSLNRQEAEIAAERFALSAEITTLGKQWQEKFAAPLIVRLDKEGAWYFSNDASGCIPAFPTQVVDTIGAGDSHAGGVLAGLASGLPLADAVLLGNAVASWVVGHRGGDCAPTREELLLAHKNV | not soluble
MSGAYDESAMSDETTDSFWEVGNYKRTVKRIEDGHRLCNDMMSCIQERAKIEKAYSQQLTDWSKRWRQLVERGPQYGTLERAWLAVMTEAEKVSELHQEVKNNLLNEDLEKVKNWQKDAYHKQMMGGFKETKEADEGFRKAQKPWAKKLKELETAKKTYHMACKEEKIASAREANSKGEASVTTDQQKKLQEKVDKCKNDVQKAKEKYEKSLDELNKCTPQYMENMEVVFDQCQQFEEKRLNFLREVLLDTKRHLNLTESQSYATVYRELERTIVSASAQEDLKWFSSVHGPGMHMNWPQFEEFNPDLSHAISKKEKVKRNHDGVTLTQVTHGAEHGTPQTGDRGSVSSYEKNQQYSAEWSDDEQPPTAAQSASETNGGNPFEEDSKGVRVRALYDYEGQEQDELTFKAGDELTKLEDEDEQGWCKGRLDSGQLGLYPANYVEPV | not soluble
MSGELKDRLVARALEEGFVSCRVCRPWDVPEMPARLGAFVEAGYHGQMGWMAERMEWRGDPAALWPEARSVIMLAESYAPDTDPMEVVGQPDRGAISVYARGKDYHDLVKKRLKRLARWLIEAGGGEVKVFVDTAPVPEKALGQAAGLGWQGKHTNLVSRDWGNWAFLGSVFTTLDLPSDPVGRDNCGSCSACLTACPTDAFPAPYRLDARRCISYLTIEHKGPVDEELRAKLGNRIYGCDDCLAACPWNKFAVAASDLRYGARPELSAPALADLARLDDAGFREMFSGSPIKRIGRDRFVRNVLYAIGNSGLPALRPVAQDLAQDSDPTVADAARWAAAKLAMSR | not soluble
MSGGPVKTPFLSFIIPAYNEEQRLPSYLERVIGFFAGQSYSFEIVVVDDGSSDGTAALVKALMAQHSCLRLEALDRNRGKGFAVKTGMSAAKGQLRVFADADGATPVEEIRRLLDAREQGADIAIGSRAMRSDECIVQGRVHRKIMGTVFNGLIRALAVRGIHDSQCGFKLFTASAAEDIFPRQRITGFGFDVELLFLARRLGYVVVEVPVNWSDVEGTKVRLVRDSFRMLGEVLRIRFTNLTGGYGDIPGKTLEHHHHHH | not soluble
MSGKPPAIFLMGPTAAGKTDLAIELTTVLPCELISVDSALVYRGMDIGSAKPSKEVLAAHPHRLIDILDPAQSYSAAQFRADALEAMAEITARGKIPLLVGGTMLYYKALIDGLADMPAADATVRAELEAQAEALGLAELHRQLAEVDPESAARIHPNDPQRLIRALEVYRVSGESMTAHRRRQFAESRGADAGAGGHLPYTVASLAIAPTDRHILHQRIALRFSQMLEQGFVDEVRSLRARSDLHAGLPSIRAVGYRQVWDYLDGKLTENEMRERGIIATRQLAKRQFTWLRGWPEVHWLDSLACDNLSRTLKYLGAISILSLEHHHHHH | soluble
MSGKRALITGIRGQDGAYLAKLLLEKGYEVYGADRRSGEFASWRLKELGIENDVKIIHMDLLEFSNIIRTIEKVQPDEVYNLAAQSFVGVSFEQPILTAEVDAIGVLRILEALRTVKPDTKFYQASTSEMFGKVQEIPQTEKTPFYPRSPYAVAKLFGHWITVNYREAYNMFACSGILFNHESPLRGIEFVTRKITYSLARIKYGLQDKLVLGNLNAKRDWGYAPEYVEAMWLMMQQPEPDDYVIATGETHTVREFVEKAAKIAGFDIEWVGEGINEKGIDRNTGKVIVEVSEEFFRPAEVDILVGNPEKAMKKLGWKPRTTFDELVEIMMEADLKRVRDREVSV | soluble
MSGLRVYSTSVTGSREIKSQQSEVTRILDGKRIQYQLVDISQDNALRDEMRTLAGNPKATPPQIVNGNHYCGDYELFVEAVEQDTLQEFLKLA | soluble
MSGNSGASPQDMVKKLVYLSCTLNQKCGQRTGPHREPEPFLGFSVRDRSGLEGAIASVFQSSFDVLLYPTIYDQAAALLFKLANGHYFQDGNKRTAFHLCLAYLRANNVHVSPPRSDDVITLLQTTVSRSGSQENGIAFVRQKLLDWTVD | not soluble
MSGRKFSFEVTKTSSAPAATLFRLVTDGGNWATWAKPIVAQSSWARRGDPAPGGIGAIRKLGMWPVFVQEETVEYEQDRRHVYKLVGARTPVQDYFGEVVLTPNASGGTDLRWSGSFTEKVRGTGPVMRAALGGAVRFFAGQLVKAAEREAVRR | soluble
MSGSMLQLIDLCKGYVDGDEFHPVLQGAELTLNQGDQLALMGESGSGKSTLLNLIAGLDSADSGEIWFPGFPMHHTSEHHRTAFRRDNIGQIFQQYNLLPTLNIADNIRFCRQLKGLPEDAGLWRQILSALDLMPLLGRYPEEVSGGQQQRAAIARALYMEPKILLADEPTGSLDERNAEAVMRLLTTLTRQLNCALLLVTHSEKVAQHMDGCIRLQGGQLHVMARS | not soluble
MSGSSEIMSMHDQIVRFSASSSAPEDTTTNSLMAEKEASLVVRLEQELTQAQICNHRLNQQLKVLANSSDKAIKIELANAKVRF | not soluble
MSGTRKKALLKVIILGDSGVGKTSLMNQYVNRRFSNQYKATIGADFLTRDVNIDDRTVTLQIWDTAGQERFQSLGVAFYRGADCCVLAFDVTNAASFKSLDSWRDEFLIQASPRDPDHFPFVLLGNKVDLESQRAVSSKRAQSWCQTKGNIPYYEVSAKEALNVEAAFLAIARDALARESQETNDFPEFPDQIRLNPNQQNQQNSGCNC | not soluble
MSGVRAVRISIESACEKQVHGVGLDGTETYLPPLSMSQNLARLAQRIDFSQGSGSEEGEAAGTEGDAQDWPGAGSSADQDDEEGVVKFQPSLWPWDSVRNNLRSALTEMCVLYDVLSIVRDKKFMTLDPVSQDALPPKQVFVDFNLEHHHHHH | not soluble
MSHHHHHHSMSKNILDMRNTVQIGIVVRDIEESLQNYAEFFGVEKPQWFWTDDYSKAHTKFNGRPTKARAKLAFFELGPLQLELIEPDENPSTWREFLDKNGEGIHHIAFVVKDMDRKVEELYRKGMKVIQKGDFEGGRYAYIDTLRALKVMIELLENY | soluble
MSIEVIAVRLTKGMDLKLSLAKLVAEHDIKAGSIASCVGCISDLNLRLAGAESTLTKREPFEIVSVMGTLTPEHQHVHISVSDREGRVWGGHLLEGTVIDTTAELIIHSYSELEFTRAMDDSTGYTELQVNPSKLEHHHHHH | not soluble
MSILVIGANGGVGSKLVSQLNEEHVDFTAGVRKEDQVKELENKGIKATLIDVEKNSINDLKNIFTDYDKVIFSVGSGGSTGADKTIIVDLDGAVKTIKASKEAGIKHYVMVSTYDSRREAFDASGDLKPYTIAKHYADDYLRTSDLNYTIVHPGSLTDDAGTGKIEADLYFDKAGSIPREDVATVLKEVVTSDGFNNQEFQILSGNHGVKDALKNYESLEHHHHHH | soluble
MSININRQNMHKMLQYKRRCIMYINTGYLNHSHKDFKDKSRPLIVGSCGTYRLSQHPKMPTYRPRGRLDYQIIYISSGLVHFHFDNPENETIIPAGHIVLFRPKELQKYEFYGKDKTQIYWLHFTGSDVKNTLRKYGFTDNKRVFNVGTSLEYEQVFKRIITELQRCQDNYEEMLMLLLRHLLIIFNRKITTEHVIRNEFLDSQMDTAITYFNTNYNRSINVEEYASSIGMSISWFIRSFRKYTGNTPVQFLTALRMTNAQVLLETTSYSINEIAGIVGYNNPLYFSRLFHKQKGCSPSEYRARNT | not soluble
MSKDFIINEQIRAREVRLIDQNGDQLGIKSKQEALEIAARRNLDLVLVAPNAKPPVCRIMDYGKFRFEQQKKEKEARK | soluble
MSKEKYSFEDLIKVMEELRKKCPWDREQTHESLKKYLIEEAYEVLDAIDSKDDEKLKEELGDLLLQVVFHSQIAKERGAFDINDVIDTLVKKLIERHPHVFGCANPEDVLKNWEKKKMEKRKSIFEGIPKHLPALMRSQKLQDRTSQVGFDFQDISQVFEKIQEEINELKESLEKGDRENIKHEIGDILTAVVELARFVNVDAEEALQEANERFIRRFSYIEKKAKEEGRKLEDMSLEEMDKLWMEAKKLEEQGKLS | soluble
MSKFGGATAKVIKGALKVRQTRAALTLTNEAVSRIRVLLAQQNDANALKIGVRQKGCNGLTYTLEYAKDKQKFDEEVEQDGIKVWIEPKAQLSLLGSEMDYVTDKLSSEFVFRNPNIKGTCGCGESFSI | not soluble
MSKKIVLALGGNALGDDLAGQMKAVKITSQAIVDLIAQGHEVIVTHGNGPQVGMINQAFEAAAKTEAHSPMLPMSVCVALSQGYIGYDLQNALREELLSRGINKPVATLVTQVEVDANDPAFLNPTKPIGSFFTEQEAEQLTKQGYTLKEDAGRGYRRVVASPKPVDIIEKETVKALVDAGQVVITVGGGGIPVIREGNHLRGASAVIDKDWASARLAEMIDADMLIILTAVEKVAINFGKENEQWLDRLSLSDAERFIEEGHFAKGSMLPKVEAAASFARSRAGREALITVLSKAKEGIEGKTGTVICQ | not soluble
MSKKLLIKTWGCQMNEYDSSKMADLLNAANGYELTEEPEEADVLLLNTCSIREKAQEKVFHQLGRWKTLKDKKPGVVIGVGGCVATQEGDHIRERAPYVDVIFGPQTLHRLPEMIKQSQTDDAPVMDISFPEIEKFDRLPEPRAEGATAFVSILEHHHHHH | not soluble
MSKKPVALIILDGFALRDETYGNAVAQANKPNFDRYWNEYPHTTLKACGEAVGLPEGQMGNAEVGHLNIGAGRIVYQSLTRINIAIREGEFDRNETFLAAMNHVKQHGTSLHLFGLLSDGGVHSHIHHLYALLRLAAKEGVKRVYIHGFLDGRDVGPQTAPQYIKELQEKIKEYGVGEIATLSGRYYSMDRDKRWDRVEKAYRAMVYGEGPTYRDPLECIEDSYKHGIYDEFVLPSVIVREDGRPVATIQDNDAIIFYNFRPDRAIQISNTFTNEDFREFDRGPKHPKHLFFVCLTHFSETVAGYVAFKPTNLDNTIGEVLSQHGLRQLRIAETEKYPHVTFFMSGGREEEFPGEDRILINSPKVPTYDLKPEMSAYEVTDALLKEIEADKYDAIILNYANPDMVGHSGKLEPTIKAVEAVDECLGKVVDAILAKGGIAIITADHGNADEVLTPDGKPQTAHTTNPVPVIVTKKGIKLRDGGILGDLAPTMLDLLGLPQPKEMTGKSLIVK | soluble
MSKLFSEYKLKDVTLKNRIVMSPMCMYSVENKDGIATDFHFAHYVSRAAGGTGLVILEATAVQEVGRISEFDLGLWNDEQVPALKKLVGGLHYHGAKAGIQLAHAGRKAVLPGEIVAPSAIAFDEKSDKPVELTKEAIKEVVADFKRAAYRAKEAGFDVIEIHAAHGYLIHQFLSPITNRREDNYGGPAGNRYKILSDIIKAVKEVWDGPIIVRVSATDYAHGGLQLEDHIPFAKWMKADGVELIDVSTGGLVNVAPPVFPGYQVPFADEIRRGAGIATGALGLITRGEQAEEILCNERADLIIVGRELLRNPYFAKDAAKQLGETIEAPKQYSRAWK | not soluble

Source: the DeepSol protein solubility set
